Holding throughout (experiment): cell-based or functional assay
For test [1], the target named is T1, PCSK9-his (wild-type PCSK9, prepared by Akeso Biopharma) (human, UniProt Q8NBP7 31-692, limits assumed).
For test [2], the target named is T1, PCSK9-his (wild-type PCSK9, prepared by …). The source holds these as a separate data set.
Test [3] addresses PCSK9(D374Y)-his (Acrobio, cat. no. PCY-H5225) (UniProt Q8NBP7 31-692).

B1: MAB1 (antibody, V domains shown)
VH: EVQLVESGGGLVQPGRSLRLSCAASGFTFSSYSMNWVRQAPGKGLEWVSGISSSSSYISYADSVQGRFTISRDNGKNSLYLQMNSLRAEDTALYFCAREYDFWSAYYDAFDVWGQGTMVTVSS
VL: QSELTQPRSVSGSPGQSVTISCTGTSRNIGGGNDVHWYQQHPGKAPKLLISGVIERSSGVPDRFSGSKSGNTASLTISGLQAEDEADYYCQSFDGSLSGSVFGTGTDVTVL
Consider B1, for which, in test [1], the “EC50 for MAB1 relieving the inhibition of LDL endocytosis in HepG2 cells by PCSK9” value is 13 µg/mL. Besides, the “EC50 of MAB1 for inhibition of LDLR endocytosis by wild-type PCSK9 (BODIPY-LDL uptake, HepG2 cells)” value in test [2] came out at 32.9 µg/mL.

B2: evolocumab (purchased from AMGEN) (antibody, V domains shown)
VH: QVQLVQSGAEVKKPGASVKVSCKASGYTLTSYGISWVRQAPGQGLEWMGWVSFYNGNTNYAQKLQGRGTMTTDPSTSTAYMELRSLRSDDTAVYYCARGYGMDVWGQGTTVTVSS
VL: QSALTQPASVSGSPGQSITISCTGTSSDVGGYNSVSWYQQHPGKAPKLMIYEVSNRPSGVSNRFSGSKSGNTASLTISGLQAEDEADYYCNSYTSTSMVFGGGTKLTVL
With B2, the “EC50 for inhibition of LDLR endocytosis by wild-type PCSK9 (BODIPY-LDL uptake, HepG2 cells)” value in test [2] worked out at 30.8 µg/mL. Moreover, the “EC50 for inhibition of LDLR endocytosis by functionally enhanced mutant PCSK9 (PCSK9-D374Y) (BODIPY-LDL uptake, HepG2 cells)” value in test [3] came to 1.26 µg/mL.

The values above are taken from patent US20230312750A1 (AD PHARMACEUTICALS, published 2023).
